Reference: patent US20210238298A1 (ALLIGATOR BIOSCIENCE, published 2021)
One block for each binder: values may come before it.

What was measured:
[1] = biological target: T1, extracellular part of cynomolgus CD137 fused to the transmembrane and intracellular part of hCD40, on CHO … (cynomolgus (Macaca fascicularis); human, UniProt A9YYE7 24-186; P25942 194-277); test: flow cytometry, CHO cells; against human CD137
T1 construct: extracellular domain;domain: transmembrane and intracellular part; also called CHO-cyCD137; cyno CD137
Protocol: (§1) Binding and EC50 to human and cynomolgus (Macaca fascicularis) CD137 was determined using flow cytometry of CHO cells transfected with human CD137, cynomolgus CD137 or empty vector. The extracellular part of human or cynomolgus CD137 was fused to the transmembrane and intracellular part of human CD40 and cloned into pcDNA3.0. The vector was subsequently stably transfected into CHO cells. […] CD137-transfected and empty vector-transfected cells were incubated with CD137 antibodies for at least 1h at 4° C. to saturate the binding. In order to minimize antibody internalization, 0.05% sodium azide was used in the incubation buffer and all work was performed on ice. […] Directly after staining the cells were fixed with a paraformaldehyde solution (10× concentrate BD CellFIX, BD biosciences #340181). Cells were analyzed by flow cytometry using FACSVerse (BD Biosciences). The median fluorescence intensity (MFI) for each sample was determined and the dose response data was analysed using Graph Pad Prism.
(§2) MFI data was normalized for each antibody, where 0% is defined as the lowest value and 100% is the highest value in the dose titration for each antibody.

[2] = biological target: T2, CD137 chimera 1551 (1408): human CD137 with mouse domains 2A, 2B and 3A (aa 47-96), on FreeStyle 293-F cells (human; mouse, UniProt P20334 46-95); test: flow cytometry, 293-F transfectants
T2 construct: domain: 2A, 2B and 3A

[3] = biological target: T3, CD137 chimera 1553 (1410): human CD137 with mouse domains 3A, 3B and 4A (aa 87-133), on FreeStyle 293-F cells (human; mouse, UniProt P20334 86-133); test: flow cytometry, 293-F transfectants
T3 construct: domain: 3A, 3B and 4A

[4] = biological target: construct 1030: full length human CD137, on FreeStyle 293-F cells (human, UniProt Q07011 24-255); test: flow cytometry, 293-F transfectants
[5] = biological target: T4, CD137 chimera 1552 (1409): human CD137 with mouse domains 2B, 3A and 3B (aa 64-118), on FreeStyle 293-F cells (human; mouse, UniProt P20334 63-117); test: flow cytometry, 293-F transfectants
T4 construct: domain: 2B, 3A and 3B

[6] = biological target: T5, CD137 chimera 1555 (1412): human CD137 with mouse domains 1 and 4B and region of unknown function (aa 24-46 … (human; mouse, UniProt P20334 24-45; P20334 139-185); test: flow cytometry, 293-F transfectants
T5 construct: domain: 1;domain: 4B and region of unknown function

[7] = biological target: T6, CD137 chimera 1550 (1407): human CD137 with mouse domains 1, 2A and 2B (aa 24-86), on FreeStyle 293-F cells (human; mouse, UniProt P20334 24-85); test: flow cytometry, 293-F transfectants
T6 construct: domain: 1, 2A and 2B

[8] = biological target: T7, CD137 chimera 1554 (1411): human CD137 with mouse domains 3B, 4A and 4B (aa 97-159), on FreeStyle 293-F cells (human; mouse, UniProt P20334 96-159); test: flow cytometry, 293-F transfectants
T7 construct: domain: 3B, 4A and 4B

[9] = biological target: T1, extracellular part of cynomolgus CD137 …; test: flow cytometry, CHO cells; 95% confidence interval
Protocol: as §1, §2

[10] = biological target: T8, extracellular part of human CD137 fused to the transmembrane and intracellular part of hCD40, on CHO cells (human, UniProt P25942 194-277, limits assumed); test: flow cytometry, CHO cells; 95% confidence interval
T8 construct: domain: transmembrane and intracellular part; also called CHO-huCD137; human CD137 over-expressed on CHO cells
Protocol: as §1, §2

[11] = biological target: T9, recombinant human CD137-Fc (R&D #838-4B) (human, UniProt Q07011 24-186); test: SPR (summary table); column headed ka (1/s)
T9 construct: Bought; also called Human CD137 (R&D systems); CD137 (R&D Systems); not shown: Fc part, not described

[12] = biological target: T8, extracellular part of human CD137 fused …; test: flow cytometry, CHO transfectants (summary table)
[13] = biological target: T9, recombinant human CD137-Fc (R&D #838-4B); test: SPR (summary table)
CD40 (Ancell) = biological target: T10, CD40 (Ancell) (UniProt P25942 21-193); test: ELISA, coated CD40-Fc
T10 construct: also called CD40-Fc (Ancell #504-820); not shown: Fc part, not described
Protocol: (§3) ELISA plates (Greiner #655074) were coated with 50 μl/well of recombinant human OX40 (R&D #1493-CD), CD40-Fc (Ancell #504-820) or CD137 (R&D #838-4B) diluted to a final concentration of 0.5 μg/ml in PBS for 1 h at 37° C. or overnight at 4° C. Plates were washed with PBS+0.05% TWEEN20 (PBST), followed by block with PBST+1% bovine serum albumin (BSA). Antibody samples were prepared as serial 1/10 dilutions from 10-0.01 μg/ml in PBST+1% BSA and incubated for 1h in room temperature, followed by detection using a horse radish peroxidase-conjugated anti-human kappa light chain antibody (AbD Serotec #STAR127P) and developed using SuperSignal ELISA Pico Chemiluminescent substrate (Pierce ThermoScientific #37069).

[14] = biological target: T9, recombinant human CD137-Fc (R&D #838-4B); test: SPR (Biacore), immobilised human CD137, bivalent antibody in flow
Protocol: Human CD137 (R&D systems) was immobilized to the Biacore™ sensorchip, CM5, using conventional amine coupling. The tested antibody and control (serially diluted ½ 10-0.63 nM) were analyzed for binding in HBS-P (GE, #BR-1003-68) at a flow rate of […]. The association was followed for 5 minutes and the dissociation for 15 minutes. Regeneration was performed twice using 10 mM Glycine pH 1.7 for 30 seconds. The kinetic parameters and the affinity constants were calculated using 1:1 Langmuir model.

[15] = biological target: CD137 on primary human CD8+ T cells (human, UniProt Q07011 24-255); test: cell-based or functional assay
[16] = biological target: T11, Human OX40 (R&D systems, #3358_OX) (human, UniProt P43489 29-216); test: ELISA, coated recombinant human OX40
T11 construct: Bought; Several catalogue numbers are given for it; also called human OX40 (R&D Systems, 3388-OX); OX40-Fc (R&D systems, #3358_OX); not shown: Fc part
T11 sequence: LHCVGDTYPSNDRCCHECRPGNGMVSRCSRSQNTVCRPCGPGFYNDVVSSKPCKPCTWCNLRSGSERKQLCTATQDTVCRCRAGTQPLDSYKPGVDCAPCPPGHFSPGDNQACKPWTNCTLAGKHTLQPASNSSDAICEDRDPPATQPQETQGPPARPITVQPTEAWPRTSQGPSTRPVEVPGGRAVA
Protocol: as §3

[17] = biological target: T9, recombinant human CD137-Fc (R&D #838-4B); test: ELISA, coated CD137-Fc; mean
[18] = biological target: T12, CTLA4-Fc (Fitzgerald, #30R-CD152) (human, UniProt P16410 38-152); test: inhibition ELISA; the best IC50 of Table 1.2 is that of 1040
T12 construct: Bought; also called human CTLA-4 (Fitzgerald); biotinylated-CTLA4; not shown: Fc part of the bought fusion, not described
Protocol: The sample (CD86 mutant or wild type protein; serially diluted ¼ from 30000 to 0.3 ng/ml) was incubated with biotinylated-CTLA4 (Fitzgerald, #30R-CD152) in room temperature 1 h, the mixture was then added to the blocked wells in the ELISA plate. Detection was performed with Streptavidin-HRP (Pierce, #21126) and the plates were subsequently developed using SuperSignal Pico Chemiluminescent substrate (Thermo Scientific, #37069) and detected with Envision reader (Perkin Elmer). […] Kd binding ratio=[Kd for CD28]÷[Kd for CTLA-4].

[19] = biological target: T12, CTLA4-Fc (Fitzgerald, #30R-CD152); test: SPR (Biacore), immobilised CTLA4-Fc
Protocol: Either CTLA4-Fc (Fitzgerald, #30R-CD152) or CD28-Fc (R&D Systems, 342-CD) was immobilized to the Biacore™ sensor chip, CM5, using conventional amine coupling. The CD86 mutant molecules and controls (serially diluted ½ 100-1.5 nM) were analyzed for binding in HBS-P (GE, BR-1003-68) at a flow rate of […]. The association was followed for 3 minutes and the dissociation for 10 minutes. Regeneration was performed twice using 5 mM NaOH for 30 seconds. The kinetic parameters and the affinity constants were calculated using BIAevaluation 4.1 software (Table 1.3).

T12 sequence (P16410 38-152 limits assumed): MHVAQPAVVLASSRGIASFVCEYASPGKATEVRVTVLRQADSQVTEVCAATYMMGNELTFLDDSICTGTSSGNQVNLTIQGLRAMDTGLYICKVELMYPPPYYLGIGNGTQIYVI
T9 sequence (Q07011 24-186 limits assumed): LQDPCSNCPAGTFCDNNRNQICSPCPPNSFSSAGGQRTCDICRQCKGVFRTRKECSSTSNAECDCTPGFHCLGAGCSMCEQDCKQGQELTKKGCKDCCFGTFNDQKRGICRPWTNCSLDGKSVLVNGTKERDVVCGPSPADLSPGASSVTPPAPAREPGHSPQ
Chain of CD137 on primary human CD8+ T cells (Q07011 24-255 limits assumed): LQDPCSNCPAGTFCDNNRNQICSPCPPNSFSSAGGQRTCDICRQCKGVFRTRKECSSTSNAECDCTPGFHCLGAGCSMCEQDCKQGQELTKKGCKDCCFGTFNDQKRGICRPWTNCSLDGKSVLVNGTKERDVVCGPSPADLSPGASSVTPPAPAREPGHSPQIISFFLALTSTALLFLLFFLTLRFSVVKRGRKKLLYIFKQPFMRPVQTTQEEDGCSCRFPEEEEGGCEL
T1 sequence (P25942 other isoform, or with tags, fused parts or gaps): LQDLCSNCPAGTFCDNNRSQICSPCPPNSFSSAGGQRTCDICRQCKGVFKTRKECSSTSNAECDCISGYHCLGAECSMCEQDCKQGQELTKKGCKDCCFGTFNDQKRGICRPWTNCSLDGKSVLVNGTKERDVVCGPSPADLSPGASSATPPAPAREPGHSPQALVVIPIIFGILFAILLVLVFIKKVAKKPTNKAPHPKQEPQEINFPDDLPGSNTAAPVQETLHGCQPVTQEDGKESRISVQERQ
T8 sequence (P25942 other isoform, or with tags, fused parts or gaps limits assumed): as the sequence (P25942 other isoform, or with tags, fused parts or gaps) above, with L4P, S19N, K50R, I66T, S67P, Y69F, E75G, A149V counted along it
T3 sequence (P20334 other isoform, or with tags, fused parts or gaps mutant limits assumed): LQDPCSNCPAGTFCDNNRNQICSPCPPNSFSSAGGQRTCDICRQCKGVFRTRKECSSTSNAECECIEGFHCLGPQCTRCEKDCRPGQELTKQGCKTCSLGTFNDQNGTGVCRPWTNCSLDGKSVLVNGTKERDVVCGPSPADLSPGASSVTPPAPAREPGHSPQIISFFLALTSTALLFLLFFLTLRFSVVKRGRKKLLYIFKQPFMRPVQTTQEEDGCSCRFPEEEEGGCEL
T4 sequence (P20334 other isoform, or with tags, fused parts or gaps mutant limits assumed): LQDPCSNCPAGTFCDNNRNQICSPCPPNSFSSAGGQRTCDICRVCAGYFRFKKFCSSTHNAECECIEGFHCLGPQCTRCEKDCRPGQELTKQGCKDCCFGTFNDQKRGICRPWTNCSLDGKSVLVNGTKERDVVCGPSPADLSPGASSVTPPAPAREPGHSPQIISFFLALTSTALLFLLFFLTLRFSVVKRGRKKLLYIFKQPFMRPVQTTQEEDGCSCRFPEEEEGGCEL
T6 sequence (P20334 other isoform, or with tags, fused parts or gaps mutant limits assumed): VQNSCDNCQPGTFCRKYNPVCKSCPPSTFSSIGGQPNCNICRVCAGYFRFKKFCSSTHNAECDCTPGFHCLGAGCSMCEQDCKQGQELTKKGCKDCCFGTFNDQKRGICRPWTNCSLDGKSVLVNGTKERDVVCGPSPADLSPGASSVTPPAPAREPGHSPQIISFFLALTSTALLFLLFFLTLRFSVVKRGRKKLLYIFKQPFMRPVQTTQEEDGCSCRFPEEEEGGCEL
T2 sequence (P20334 other isoform, or with tags, fused parts or gaps mutant limits assumed): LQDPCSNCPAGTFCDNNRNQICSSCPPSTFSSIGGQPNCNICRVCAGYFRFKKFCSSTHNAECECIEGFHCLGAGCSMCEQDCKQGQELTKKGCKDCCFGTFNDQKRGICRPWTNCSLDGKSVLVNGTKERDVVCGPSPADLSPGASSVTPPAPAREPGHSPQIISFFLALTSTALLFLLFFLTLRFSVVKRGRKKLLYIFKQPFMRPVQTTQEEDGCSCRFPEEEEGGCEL
T7 sequence (P20334 other isoform, or with tags, fused parts or gaps mutant limits assumed): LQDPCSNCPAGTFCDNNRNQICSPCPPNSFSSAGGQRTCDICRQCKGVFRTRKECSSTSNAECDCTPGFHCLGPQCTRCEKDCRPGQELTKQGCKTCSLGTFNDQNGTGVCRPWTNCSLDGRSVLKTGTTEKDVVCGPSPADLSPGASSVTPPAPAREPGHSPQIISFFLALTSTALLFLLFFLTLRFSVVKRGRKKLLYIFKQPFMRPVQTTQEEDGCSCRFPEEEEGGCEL
T10 sequence (P25942 21-193 limits assumed): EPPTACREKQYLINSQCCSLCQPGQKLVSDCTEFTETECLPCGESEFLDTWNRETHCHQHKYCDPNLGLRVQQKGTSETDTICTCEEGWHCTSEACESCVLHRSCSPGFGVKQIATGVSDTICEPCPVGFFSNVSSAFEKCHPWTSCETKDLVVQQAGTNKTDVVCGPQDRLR
T5 sequence (P20334 other isoform, or with tags, fused parts or gaps mutant limits assumed): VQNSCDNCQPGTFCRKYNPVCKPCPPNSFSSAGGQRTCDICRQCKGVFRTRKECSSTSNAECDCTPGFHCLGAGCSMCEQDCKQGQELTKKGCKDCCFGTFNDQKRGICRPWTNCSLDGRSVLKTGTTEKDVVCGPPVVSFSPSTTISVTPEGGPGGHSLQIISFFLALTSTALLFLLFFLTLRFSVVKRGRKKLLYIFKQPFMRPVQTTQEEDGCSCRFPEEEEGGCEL
Chain of construct 1030: full length human CD137, on FreeStyle 293-F cells (Q07011 24-255 limits assumed): as the sequence (Q07011 24-255 limits assumed) above

- Ratio, cyno:human (EC50) [1]: 0.77
- relative binding (MFI sample/isotype control, normalised to full-length human CD137) [2]: 0.67
- relative binding (MFI sample/isotype control, normalised to full-length human CD137) [3]: 1.24
- relative binding (MFI sample/isotype control, normalised to full-length human CD137) [4]: 1
- relative binding (MFI sample/isotype control, normalised to full-length human CD137) [5]: 1.2
- relative binding (MFI sample/isotype control, normalised to full-length human CD137) [6]: 0.12
- relative binding (MFI sample/isotype control, normalised to full-length human CD137) [7]: 0.11
- relative binding (MFI sample/isotype control, normalised to full-length human CD137) [8]: 1.01
- EC50 [9]: 0.086 to 0.15 µg/mL
- EC50 [10]: 0.11 to 0.19 µg/mL
- koff [11]: 0.0001 s⁻¹
- EC50 [12]: 0.11 to 0.19 µg/mL
- Kd [13]: 0.1 nM
- kon [13]: 1e+06 M⁻¹ s⁻¹
- binding result (CD40 (Ancell)): no binding (tested: 10 µg/ml)
- Kd [14]: 0.107 nM
- koff [14]: 0.00011 s⁻¹
- kon [14]: 1.02e+06 M⁻¹ s⁻¹
- Max IFN-γ [15]: 111000 pg/mL
- Mean IFN-γ [15]: 33600 pg/mL
- Min IFN-γ [15]: 7380 pg/mL
- binding result [16]: no binding (tested: 10 µg/ml)
- EC50 [17]: 0.35 nM
B1: anti-CD137 antibody 1618/1619 (antibody, IgG1, V domains shown)
VH: EVQLLESGGGLVQPGGSLRLSCAASGFTFSYGSMYWVRQAPGKGLEWVSSISSGSGSTYYADSVKGRFTISRDNSKNTLYLQMNSLRAEDTAVYYCARSSYYGSYYSIDYWGQGTLVTVSS
VL: DIQMTQSPSSLSASVGDRVTITCRASQSISSYLNWYQQKPGKAPKLLIYAASSLQSGVPSRFSGSGSGTDFTLTISSLQPEDFATYYCQQYYDNLPTFGQGTKLEIK
notes: Produced as IgG; also called 1618-bio

- fold improvement of IC50 compared to wild type [18]: > 100 fold
- Kd [19]: 3 nM
- koff [19]: 0.0032 s⁻¹
- kon [19]: 1e+06 M⁻¹ s⁻¹
B2: CD86 mutant 1040 (ligand)
chain: APLKIQAYFNETADLPCQFANSQNLSLSELVVFWQDQENLVLNEVYLGKERFDSVDSKYMGRTSFDSDSWTLRLHNLQIKDKGRYQCIIHHKKPTGMINIHQMNSELSVLA
notes: Variant of the CD86 extracellular domain
